Source: paper PMC8113585 (Nature Communications, 2020)

Legend:
Settings in all cases: both partners purified
[1] = target: T1, SARS-CoV nucleocapsid (N) protein, full length (N-FL) (Severe acute respiratory syndrome …, UniProt P59595); assay: SPR; Biacore X100; […]; room temperature; 1:1 binding model, […]
T1 construct: also called SARS-CoV N protein; SARS-CoV N-FL

[2] = target: T2, MERS-CoV nucleocapsid (N) protein, full length (N-FL) (MERS-CoV, strain , UniProt K9N4V7); assay: as above
T2 construct: also called MERS-CoV N protein; MERS-CoV N-FL

[3] = target: T3, SARS-CoV-2 nucleocapsid (N) protein, full length (N-FL, 1-419) (Severe acute respiratory syndrome …, UniProt P0DTC9); assay: as above
T3 construct: also called SARS-CoV-2 N protein

[4] = target: T4, MERS-CoV N protein (N-FL) (MERS-CoV, strain , UniProt K9N4V7); assay: SPR; Biacore X100; […]; room temperature; 1:1 binding model
T4 construct: also called MERS-CoV N-FL; Middle East respiratory syndrome coronavirus N protein

[5] = target: T5, SARS-CoV-2 full-length nucleocapsid (N) protein (N-FL: 1-419) (Severe acute respiratory syndrome …, UniProt P0DTC9); assay: as above
T5 construct: also called SARS-CoV-2 N protein

[6] = target: T6, SARS-CoV N protein (N-FL) (Severe acute respiratory syndrome …, UniProt P59595); assay: as above
T6 construct: also called SARS-CoV N-FL

B1: mAb nCoV396 (recombinant human IgG1) (antibody, V domains shown)
VH: QVQLVESGGGVVQPGRSLRLSCAASGFTFSSYIMHWVRQAPGKGLEWVAVISYDGSNEAYADSVKGRFTISRDNSKNTLYLQMSSLRAEDTGVYYCARETGDYSSSWYDSWGRGTLVTVSS
VL: QLVLTQSPSASASLGASVKLTCTLSSGHSNYAIAWHQQQPEKGPRYLMKVNSDGSHTKGDGIPDRFSGSSSGAERYLTISSLQSEDEADYYCQTWGTGIQVFGGGTKLTVL
notes: also called mAb-396; IgH ID H16030
Binder B1 has a Kd [1] of 7.44 nM, a koff [1] of 0.000295 s⁻¹ and a kon [1] of 39700 M⁻¹ s⁻¹. For the same binder, the Kd [2] was 7.43 nM, the koff [2] was 0.0004 s⁻¹ and the kon [2] was 53800 M⁻¹ s⁻¹. The koff [3] was 2.89e-06 s⁻¹ and the kon [3] was 2830 M⁻¹ s⁻¹.

B2: human monoclonal antibody nCoV396, recombinant IgG1 (antibody, V domains shown)
VH: QVQLVESGGGVVQPGRSLRLSCAASGFTFSSYIMHWVRQAPGKGLEWVAVISYDGSNEAYADSVKGRFTISRDNSKNTLYLQMSSLRAEDTGVYYCARETGDYSSSWYDSWGRGTLVTVSS
VL: QLVLTQSPSASASLGASVKLTCTLSSGHSNYAIAWHQQQPEKGPRYLMKVNSDGSHTKGDGIPDRFSGSSSGAERYLTISSLQSEDEADYYCQTWGTGIQVFGGGTKLTVL
notes: also called mAb nCoV396
In the case of B2, the Kd [4] is reported as 7.4 nM, the Kd [5] is reported as 1.02 nM and the Kd [6] is reported as 7.4 nM.
